In paper PMC3335088 (PLoS ONE, 2012):

T1: MCM4 with 6-His tag in combination with a StrepII tag (UniProt P33991 1-863)
T1 construct: MCM4; The methods describe one MCM4 baculovirus with both tags; also called Strep-MCM4; Strep-tagged MCM4; source: High Five insect cells, baculovirus, in lysate
T1 sequence (looked up): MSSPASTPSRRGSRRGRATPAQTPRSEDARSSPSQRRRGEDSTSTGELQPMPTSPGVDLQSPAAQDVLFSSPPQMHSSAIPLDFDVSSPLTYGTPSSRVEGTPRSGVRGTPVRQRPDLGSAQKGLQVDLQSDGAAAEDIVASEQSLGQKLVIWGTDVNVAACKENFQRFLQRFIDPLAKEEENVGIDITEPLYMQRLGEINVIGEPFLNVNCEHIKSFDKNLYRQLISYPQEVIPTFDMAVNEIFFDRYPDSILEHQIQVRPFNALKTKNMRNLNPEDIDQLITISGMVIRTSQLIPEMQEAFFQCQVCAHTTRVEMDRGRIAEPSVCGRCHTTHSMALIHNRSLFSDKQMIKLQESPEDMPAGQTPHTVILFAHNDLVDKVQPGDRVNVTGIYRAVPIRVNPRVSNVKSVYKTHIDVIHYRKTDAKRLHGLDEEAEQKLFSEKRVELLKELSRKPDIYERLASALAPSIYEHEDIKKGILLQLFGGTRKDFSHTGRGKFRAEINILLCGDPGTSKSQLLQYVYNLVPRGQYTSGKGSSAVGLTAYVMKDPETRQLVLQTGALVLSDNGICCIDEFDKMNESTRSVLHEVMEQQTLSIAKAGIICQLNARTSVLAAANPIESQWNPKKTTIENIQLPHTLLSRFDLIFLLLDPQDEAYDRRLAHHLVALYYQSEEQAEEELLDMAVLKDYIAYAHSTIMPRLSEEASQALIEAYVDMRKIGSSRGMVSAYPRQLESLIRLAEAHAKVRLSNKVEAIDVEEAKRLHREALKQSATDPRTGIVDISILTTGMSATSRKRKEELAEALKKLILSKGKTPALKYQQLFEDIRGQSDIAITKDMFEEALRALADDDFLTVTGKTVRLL

T2: MCM5 with 6-His tag in combination with a triple FLAG tag (UniProt P33992 1-734)
T2 construct: MCM5; also called FLAG-MCM5; 6-His-tagged MCM5; source: High Five insect cells, baculovirus, in lysate; not shown: His6, N-terminal, kept; triple FLAG, N-terminal, kept
T2 sequence (looked up): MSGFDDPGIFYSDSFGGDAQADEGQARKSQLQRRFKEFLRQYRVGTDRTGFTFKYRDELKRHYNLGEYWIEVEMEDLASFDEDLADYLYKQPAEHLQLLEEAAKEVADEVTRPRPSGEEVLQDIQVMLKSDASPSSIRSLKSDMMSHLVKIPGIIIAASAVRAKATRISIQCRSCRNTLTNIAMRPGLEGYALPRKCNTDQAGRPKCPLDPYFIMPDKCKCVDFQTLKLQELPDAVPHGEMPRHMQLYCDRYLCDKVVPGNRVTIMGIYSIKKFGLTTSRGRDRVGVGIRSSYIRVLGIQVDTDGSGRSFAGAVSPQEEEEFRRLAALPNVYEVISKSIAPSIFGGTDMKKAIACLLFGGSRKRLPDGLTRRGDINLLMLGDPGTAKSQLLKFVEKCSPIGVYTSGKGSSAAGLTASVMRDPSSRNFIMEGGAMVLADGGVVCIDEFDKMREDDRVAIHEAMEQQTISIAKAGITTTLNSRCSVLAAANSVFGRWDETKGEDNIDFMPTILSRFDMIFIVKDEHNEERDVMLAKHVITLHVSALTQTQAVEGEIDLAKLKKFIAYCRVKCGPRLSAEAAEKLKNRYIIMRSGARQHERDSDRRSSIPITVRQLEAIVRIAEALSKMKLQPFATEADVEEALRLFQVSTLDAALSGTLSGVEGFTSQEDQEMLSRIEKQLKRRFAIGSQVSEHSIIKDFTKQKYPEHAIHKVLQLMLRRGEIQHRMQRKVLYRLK

T3: MCM6 with 6-His tag in combination with a HA tag (human, UniProt Q14566 1-821)
T3 construct: MCM6; also called HA-MCM6; 6-His-tagged MCM6; source: High Five insect cells, baculovirus, in lysate
T3 sequence (looked up): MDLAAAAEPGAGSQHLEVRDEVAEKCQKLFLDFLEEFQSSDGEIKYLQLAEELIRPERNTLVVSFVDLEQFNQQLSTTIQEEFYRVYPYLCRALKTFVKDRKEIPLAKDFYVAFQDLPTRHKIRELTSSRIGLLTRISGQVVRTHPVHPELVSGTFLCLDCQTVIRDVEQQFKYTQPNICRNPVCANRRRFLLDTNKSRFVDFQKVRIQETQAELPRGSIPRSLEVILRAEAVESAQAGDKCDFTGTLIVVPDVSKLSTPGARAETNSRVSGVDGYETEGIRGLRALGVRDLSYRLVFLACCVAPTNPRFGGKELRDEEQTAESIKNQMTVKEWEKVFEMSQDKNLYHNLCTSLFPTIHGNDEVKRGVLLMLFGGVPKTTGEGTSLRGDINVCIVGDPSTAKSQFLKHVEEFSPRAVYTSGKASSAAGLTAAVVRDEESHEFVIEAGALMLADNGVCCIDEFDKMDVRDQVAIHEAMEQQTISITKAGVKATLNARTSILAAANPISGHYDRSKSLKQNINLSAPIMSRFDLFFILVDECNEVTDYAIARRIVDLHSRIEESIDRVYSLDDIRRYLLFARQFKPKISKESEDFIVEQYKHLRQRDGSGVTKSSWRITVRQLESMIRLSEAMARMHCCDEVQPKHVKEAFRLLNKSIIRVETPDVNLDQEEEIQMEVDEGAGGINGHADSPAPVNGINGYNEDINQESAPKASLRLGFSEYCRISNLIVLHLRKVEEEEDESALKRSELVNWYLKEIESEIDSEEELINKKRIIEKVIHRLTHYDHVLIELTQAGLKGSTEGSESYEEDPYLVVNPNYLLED

T4: untagged MCM3 (UniProt P25205 1-808)
T4 construct: MCM3, untagged; construct not described in the methods; also called MCM3 (no tag); source: High Five insect cells, baculovirus, in lysate; co-isolated with His-MCM-BP for the gradient
T4 sequence (looked up): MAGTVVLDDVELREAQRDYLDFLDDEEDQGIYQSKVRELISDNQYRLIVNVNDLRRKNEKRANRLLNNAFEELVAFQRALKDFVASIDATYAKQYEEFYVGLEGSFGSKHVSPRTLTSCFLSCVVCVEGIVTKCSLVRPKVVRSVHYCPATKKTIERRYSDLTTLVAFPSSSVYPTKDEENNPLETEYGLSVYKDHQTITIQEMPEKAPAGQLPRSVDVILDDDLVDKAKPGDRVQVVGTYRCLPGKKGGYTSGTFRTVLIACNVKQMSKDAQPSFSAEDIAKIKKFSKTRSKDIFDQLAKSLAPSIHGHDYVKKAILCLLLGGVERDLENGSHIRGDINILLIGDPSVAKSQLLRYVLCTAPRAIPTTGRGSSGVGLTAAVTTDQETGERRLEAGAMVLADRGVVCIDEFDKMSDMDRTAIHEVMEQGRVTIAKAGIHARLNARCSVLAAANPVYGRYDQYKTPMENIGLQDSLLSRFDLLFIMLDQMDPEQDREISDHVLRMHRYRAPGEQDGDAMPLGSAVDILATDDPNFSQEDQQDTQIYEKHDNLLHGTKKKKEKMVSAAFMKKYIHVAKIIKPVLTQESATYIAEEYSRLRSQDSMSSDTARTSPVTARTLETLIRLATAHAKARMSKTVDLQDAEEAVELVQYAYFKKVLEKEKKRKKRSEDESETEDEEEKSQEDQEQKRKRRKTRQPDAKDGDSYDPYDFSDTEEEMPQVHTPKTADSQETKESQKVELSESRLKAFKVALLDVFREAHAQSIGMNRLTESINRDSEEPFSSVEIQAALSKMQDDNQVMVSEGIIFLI

B1: MCM-BP with no tags (natural protein, human, UniProt Q9BTE3 1-642, looked up)
chain: MPCGEDWLSHPLGIVQGFFAQNGVNPDWEKKVIEYFKEKLKENNAPKWVPSLNEVPLHYLKPNSFVKFRCMIQDMFDPEFYMGVYETVNQNTKAHVLHFGKYRDVAECGPQQELDLNSPRNTTLERQTFYCVPVPGESTWVKEAYVNANQARVSPSTSYTPSRHKRSYEDDDDMDLQPNKQKDQHAGARQAGSVGGLQWCGEPKRLETEASTGQQLNSLNLSSPFDLNFPLPGEKGPACLVKVYEDWDCFKVNDILELYGILSVDPVLSILNNDERDASALLDPMECTDTAEEQRVHSPPASLVPRIHVILAQKLQHINPLLPACLNKEESKTCKFVSSFMSELSPVRAELLGFLTHALLGDSLAAEYLILHLISTVYTRRDVLPLGKFTVNLSGCPRNSTFTEHLYRIIQHLVPASFRLQMTIENMNHLKFIPHKDYTANRLVSGLLQLPSNTSLVIDETLLEQGQLDTPGVHNVTALSNLITWQKVDYDFSYHQMEFPCNINVFITSEGRSLLPADCQIHLQPQLIPPNMEEYMNSLLSAVLPSVLNKFRIYLTLLRFLEYSISDEITKAVEDDFVEMRKNDPQSITADDLHQLLVVARCLSLSAGQTTLSRERWLRAKQLESLRRTRLQQQKCVNGNEL
notes: MCM-BP, human; made from pfastBacHT.MCM-BP by excising the 6-His tag; also called untagged MCM-BP; nontagged MCM-BP; source: High Five insect cells, baculovirus, co-expressed, in lysate
B2: His-tagged MCM-BP (natural protein, human, UniProt Q9BTE3 1-642, looked up)
chain: MPCGEDWLSHPLGIVQGFFAQNGVNPDWEKKVIEYFKEKLKENNAPKWVPSLNEVPLHYLKPNSFVKFRCMIQDMFDPEFYMGVYETVNQNTKAHVLHFGKYRDVAECGPQQELDLNSPRNTTLERQTFYCVPVPGESTWVKEAYVNANQARVSPSTSYTPSRHKRSYEDDDDMDLQPNKQKDQHAGARQAGSVGGLQWCGEPKRLETEASTGQQLNSLNLSSPFDLNFPLPGEKGPACLVKVYEDWDCFKVNDILELYGILSVDPVLSILNNDERDASALLDPMECTDTAEEQRVHSPPASLVPRIHVILAQKLQHINPLLPACLNKEESKTCKFVSSFMSELSPVRAELLGFLTHALLGDSLAAEYLILHLISTVYTRRDVLPLGKFTVNLSGCPRNSTFTEHLYRIIQHLVPASFRLQMTIENMNHLKFIPHKDYTANRLVSGLLQLPSNTSLVIDETLLEQGQLDTPGVHNVTALSNLITWQKVDYDFSYHQMEFPCNINVFITSEGRSLLPADCQIHLQPQLIPPNMEEYMNSLLSAVLPSVLNKFRIYLTLLRFLEYSISDEITKAVEDDFVEMRKNDPQSITADDLHQLLVVARCLSLSAGQTTLSRERWLRAKQLESLRRTRLQQQKCVNGNEL
notes: MCM-BP, human; pfastBacHT.MCM-BP; also called His-MCM-BP; His-BP; source: High Five insect cells, baculovirus; not shown: His6, N-terminal, kept

Key:
Conditions in all cases: partners not purified
[1] = biological target: T1, MCM4 with 6-His tag in combination with …; assay: pull-down; co-expression in High Five insect cells; lysis in 50-100 mM Tris-HCl pH 8.0, 150 mM NaCl, 5% glycerol, 0.5% Triton X-100; tagged protein recovered on Ni-NTA, anti-FLAG M2, anti-HA or StrepT-actin resin, 1 hr at 4°C; washes with 300 mM NaCl; Coomassie staining and Western blot
[2] = biological target: T2, MCM5 with 6-His tag in combination with …; assay: as above
[3] = biological target: T3, MCM6 with 6-His tag in combination with …; assay: as above
[4] = biological target: T4, untagged MCM3; assay: pull-down; co-expression in High Five insect cells; NaCl of the clarified lysate raised from 0.15 M up to 0.75 M, or deoxycholate added to 0.1 or 0.5% (with 150 mM NaCl), before incubation with Strep-T actin, anti-FLAG or nickel resin; Coomassie staining

Binder	binding result [1]	binding result [2]	binding result [3]	binding result [4]
B1	binds	binds	binds	
B2				binds
